Experimental data reported in publication PMC9408559, “Genome-Wide Analysis of the RAV Gene Family in Wheat and Functional Identification of TaRAV1 in Salt Stress”.

Biological target: TaRAV1 (GST fusion) (Triticum aestivum, UniProt A0A3B6A018 1-392)
Assay: EMSA; LightShift Chemiluminescent EMSA kit (Pierce), manufacturer's protocol; buffer, salt, pH and temperature not given
Details: protein: recombinant; tags: GST; label: biotin

TaRAV1 (GST fusion), sequence (A0A3B6A018 entry or part of it): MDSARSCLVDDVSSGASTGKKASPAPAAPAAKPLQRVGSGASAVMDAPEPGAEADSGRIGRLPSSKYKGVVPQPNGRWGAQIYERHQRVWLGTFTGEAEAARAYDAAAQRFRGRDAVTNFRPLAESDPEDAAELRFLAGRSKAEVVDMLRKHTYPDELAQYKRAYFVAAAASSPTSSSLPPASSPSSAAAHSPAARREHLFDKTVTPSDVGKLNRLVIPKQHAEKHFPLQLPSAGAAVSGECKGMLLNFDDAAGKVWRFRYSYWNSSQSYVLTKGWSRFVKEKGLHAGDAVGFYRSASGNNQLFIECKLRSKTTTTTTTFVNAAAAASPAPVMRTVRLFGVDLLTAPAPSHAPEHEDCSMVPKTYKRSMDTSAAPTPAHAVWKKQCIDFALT

Binder	binding result
probe with CAACA and CACCTG elements (dsDNA) DNA 1: CGGCAACAATAAACACCTGACTCGACGGCAACAATAAACACCTGAC DNA 2: GTCAGGTGTTTATTGTTGCCGTCGAGTCAGGTGTTTATTGTTGCCG	binds
probe with mutated CAACA and CACCTG elements (dsDNA) DNA 1: CGGCATGTATAAACAATAGACTCGACGGCATGTATAAACAATAGAC DNA 2: GTCTATTGTTTATACATGCCGTCGAGTCTATTGTTTATACATGCCG	no binding
